PMC4863741 (Genes & Development, 2016)
One block for each binder: values may come before it.

Legend:
[1] = target: T1, GST-His-Sfmbt-SAM_(1137-1220) (Drosophila, UniProt Q9VK33 1137-1220); test: pull-down
T1 sequence (looked up): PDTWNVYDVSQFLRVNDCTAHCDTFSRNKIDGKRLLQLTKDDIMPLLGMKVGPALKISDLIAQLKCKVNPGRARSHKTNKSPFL

[2] = target: T2, Sfmbt-SAM_(1137-1220) (Drosophila, UniProt Q9VK33 1137-1220); test: SEC
T2 sequence (looked up): T1 sequence (looked up)

- binding result [1]: binds
B1: His-Scm-SAM_(803-877)^L855E/L859E (domain or fragment, Drosophila, UniProt Q9VHA0 803-877, looked up)
chain: PIDWTIEEVIQYIESNDNSLAVHGDLFRKHEIDGKALLLLNSEMMMKYMGLKEGPAEKICNLVNKVNGRRNNLAL

- binding result [2]: binds
B2: Scm-SAM_(803-877)^L855E/L859E (coexpressed with Sfmbt-SAM) (domain or fragment, Drosophila, UniProt Q9VHA0 803-877, looked up)
chain: B1 chain
